From publication PMC7379511 come the findings set out here.

This assay concerns the target feline interleukin-31 (fIL-31) displayed on the yeast surface (pETconNK_fIL-31) (feline). As to the kind of experiment: flow cytometry on cells. (In general: Flow cytometry measures light scatter and fluorescence of single cells or particles in a stream.)

pKd: −log10 of the molar value.

In turn, “soluble feline oncostatin M receptor extracellular domain, Fc fusion (fOSMR-ECD)” showed a pKd of 7.99, a percent decrease of the binding of biotinylated fIL31RA-1FNIII of 65% and a percent decrease of the binding of biotinylated fOSMR-ECD (itself) of 97%.

For orientation: pKd means the negative decadic logarithm of the Kd, by convention in mol/L. Low readings indicate a large Kd, high ones a small Kd.
